B1: GFP-MKRN1^wt (Makorin Ring Finger Protein 1, wild type, N-terminally GFP-tagged) [human] / cytoplasmic poly(A)-binding protein PABPC4 (endogenous) [human (endogenous in HEK293T)] (parent complex)
chain 1: MAEAATPGTTATTSGAGAAAATAAAASPTPIPTVTAPSLGAGGGGGGSDGSGGGWTKQVTCRYFMHGVCKEGDNCRYSHDLSDSPYSVVCKYFQRGYCIYGDRCRYEHSKPLKQEEATATELTTKSSLAASSSLSSIVGPLVEMNTGEAESRNSNFATVGAGSEDWVNAIEFVPGQPYCGRTAPSCTEAPLQGSVTKEESEKEQTAVETKKQLCPYAAVGECRYGENCVYLHGDSCDMCGLQVLHPMDAAQRSQHIKSCIEAHEKDMELSFAVQRSKDMVCGICMEVVYEKANPSERRFGILSNCNHTYCLKCIRKWRSAKQFESKIIKSCPECRITSNFVIPSEYWVEEKEEKQKLILKYKEAMSNKACRYFDEGRGSCPFGGNCFYKHAYPDGRREEPQRQKVGTSSRYRAQRRNHFWELIEERENSNPFDNDEEEVVTFELGEMLLMLLAAGGDDELTDSEDEWDLFHDELEDFYDLDL
chain 2: MNAAASSYPMASLYVGDLHSDVTEAMLYEKFSPAGPVLSIRVCRDMITRRSLGYAYVNFQQPADAERALDTMNFDVIKGKPIRIMWSQRDPSLRKSGVGNVFIKNLDKSIDNKALYDTFSAFGNILSCKVVCDENGSKGYAFVHFETQEAADKAIEKMNGMLLNDRKVFVGRFKSRKEREAELGAKAKEFTNVYIKNFGEEVDDESLKELFSQFGKTLSVKVMRDPNGKSKGFGFVSYEKHEDANKAVEEMNGKEISGKIIFVGRAQKKVERQAELKRKFEQLKQERISRYQGVNLYIKNLDDTIDDEKLRKEFSPFGSITSAKVMLEDGRSKGFGFVCFSSPEEATKAVTEMNGRIVGSKPLYVALAQRKEERKAHLTNQYMQRVAGMRALPANAILNQFQPAAGGYFVPAVPQAQGRPPYYTPNQLAQMRPNPRWQQGGRPQGFQGMPSAIRQSGPRPTLRHLAPTGSECPDRLAMDFGGAGAAQQGLTDSCQSGGVPTAVQNLAPRAAVAAAAPRAVAPYKYASSVRSPHPAIQPLQAPQPAVHVQGQEPLTASMLAAAPPQEQKQMLGERLFPLIQTMHSNLAGKITGMLLEIDNSELLHMLESPESLRSKVDEAVAVLQAHHAKKEAAQKVGAVAAATS

In this assay the parent is B1. Put plainly: AP with quantitative MS-based proteomics (SILAC); HEK293T cells; combined ratios of three replicates; read off a plot.
With chain 1 A169S, chain 1 F172A, chain 1 P174A, the screen value was about -9.1 z-score.

Values taken from article PMC6805484 (2019).
